In the supplement of paper PMC7877785:
± gives the uncertainty stated by the source.

Experiment: self-splicing fitness, log relative to wild type (ln ratio); higher = more splicing; Tetrahymena group I intron in knt gene, E. coli kanamycin selection, DiMSum; sequences stand for … in CUCUCU…GGAGGGAAAAGUUAUCAGGCAUGCACCUGGUAGCUAGUCUUUAAACCAAUAGAUUGCAUCGGUUUAAAAGGCAAGACCGUCAAAUUGCGGGAAAGGGGUCAACAGCCGUUCAGUACCAAGUCUCAGGGGAAACUUUGAGAUGGCCUUGCAAAGGGUAUGGUAAUAAGCUGACGGACAUGGUCCUAACCACGCAGCCAAGUCCUAAGUCAACAGAUCUUCUGUUGAUAUGGAUGCAGUUCACAGACUAAAUGUCGGUCGGGGAAGAUGUAUUCUUCUCAUAAGAUAUAGUCGGACCUCUCCUUAAUGGGAGCUAGCGGAUGAAGUGAUGCAACACUGGAGCCGCUGGGAACUAAUUUGUAUGCGAAAGUAUAUUGAUUAGUUUUGGAGUACUCGUGGUCG
In short: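 Colonies from six replicate transformations of E. coli BL21(DE3) were pooled and amplicon-sequenced on an Illumina HiSeq 2500. The library placed an intron with all eight P1ex-region nucleotides randomised inside the knt kanamycin-resistance gene on pET-22b(+), and cells grew overnight at 37°C or 30°C on LB agar with or without 25 μg/mL kanamycin (plus 100 μg/mL carbenicillin, 50 μM IPTG, 0.2% rhamnose). Fitness is the DiMSum error-weighted combination of wild-type-normalised replicate fold changes, kanamycin versus none.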

For CGACAGCAAUAUUACGAGGG, which “self-splicing fitness (ln)” value (30 °C) is on record?
Its value is -3.67 ± 0.13.

What about the “self-splicing fitness (ln)” value (37 °C) of the same sequence?
The value was -2.99 ± 0.15.

For CGACAGCAAUAUUACGAGUU, which “self-splicing fitness (ln)” value (30 °C) is on record?
The value was -2.98 ± 0.1.

What about the “self-splicing fitness (ln)” value (37 °C) of the same sequence?
The value was -3.25 ± 0.15.

For CGACAGCAAUAUUACGAUCU, which “self-splicing fitness (ln)” value (30 °C) is on record?
Its value is -0.335 ± 0.1.

And the “self-splicing fitness (ln)” value (37 °C)?
The value was 0.552 ± 0.094.

With CGACAGCAAUAUUACGCCAG as the sequence, how does the “self-splicing fitness (ln)” value (30 °C) read?
The value was -1.73 ± 0.11.

And the “self-splicing fitness (ln)” value (37 °C)?
The value was -0.84 ± 0.13.

For CGACAGCAAUAUUACGCGAG, which “self-splicing fitness (ln)” value (30 °C) is on record?
Its value is -1.5 ± 0.16.

What about the “self-splicing fitness (ln)” value (37 °C) of the same sequence?
Its value is -2.32 ± 0.21.

Which results are given for CGACAGCAAUAUUACGCGGG?
self-splicing fitness (ln) (30 °C): -2.71 ± 0.12; self-splicing fitness (ln) (37 °C): -2.39 ± 0.15

Which “self-splicing fitness (ln)” value (30 °C) does the source give for CGACAGCAAUAUUACGCGGU here?
Its value is -4.5 ± 0.15.

And the “self-splicing fitness (ln)” value (37 °C)?
The value was -2.85 ± 0.14.

Which “self-splicing fitness (ln)” value (30 °C) does the source give for CGACAGCAAUAUUACGCUCU here?
Its value is -1.69 ± 0.11.

And the “self-splicing fitness (ln)” value (37 °C)?
The value was -0.145 ± 0.11.

Which “self-splicing fitness (ln)” value (30 °C) does the source give for CGACAGCAAUAUUACGGAGA here?
The value was -2.18 ± 0.15.

And the “self-splicing fitness (ln)” value (37 °C)?
The value was -3.29 ± 0.28.

Which “self-splicing fitness (ln)” value (30 °C) does the source give for CGACAGCAAUAUUACGGAGC here?
The value was -2.83 ± 0.19.

What about the “self-splicing fitness (ln)” value (37 °C) of the same sequence?
Its value is -3.04 ± 0.25.

Which “self-splicing fitness (ln)” value (30 °C) does the source give for CGACAGCAAUAUUACGGGAC here?
The value was -4.58 ± 0.26.

What about the “self-splicing fitness (ln)” value (37 °C) of the same sequence?
Its value is -1.71 ± 0.14.

For CGACAGCAAUAUUACGGGGU, which “self-splicing fitness (ln)” value (30 °C) is on record?
Its value is -4.03 ± 0.17.

And the “self-splicing fitness (ln)” value (37 °C)?
Its value is -3.01 ± 0.17.

With CGACAGCAAUAUUACGGGUC as the sequence, how does the “self-splicing fitness (ln)” value (30 °C) read?
Its value is -4.52 ± 0.32.

And the “self-splicing fitness (ln)” value (37 °C)?
Its value is -3.14 ± 0.29.

With CGACAGCAAUAUUACGUACG as the sequence, how does the “self-splicing fitness (ln)” value (30 °C) read?
The value was -3.63 ± 0.21.

And the “self-splicing fitness (ln)” value (37 °C)?
The value was -2.92 ± 0.38.

What does the source list for CGACAGCAAUAUUACGUCAU?
self-splicing fitness (ln) (30 °C): -3.41 ± 0.24; self-splicing fitness (ln) (37 °C): -1.54 ± 0.14

For CGACAGCAAUAUUACGUCCG, which “self-splicing fitness (ln)” value (30 °C) is on record?
The value was -1.31 ± 0.12.

And the “self-splicing fitness (ln)” value (37 °C)?
Its value is -1.04 ± 0.12.

With CGACAGCAAUAUUACGUCUA as the sequence, how does the “self-splicing fitness (ln)” value (30 °C) read?
The value was -0.367 ± 0.052.

What about the “self-splicing fitness (ln)” value (37 °C) of the same sequence?
The value was 0.0477 ± 0.061.

For CGACAGCAAUAUUACGUUCA, which “self-splicing fitness (ln)” value (30 °C) is on record?
The value was -0.308 ± 0.054.

What about the “self-splicing fitness (ln)” value (37 °C) of the same sequence?
The value was 0.198 ± 0.087.

What does the source list for CGACAGCAAUAUUACGUUGA?
self-splicing fitness (ln) (30 °C): -3.63 ± 0.15; self-splicing fitness (ln) (37 °C): -1.85 ± 0.1

For CGAGAGCAAUAUUACGAACG, which “self-splicing fitness (ln)” value (30 °C) is on record?
The value was -2.48 ± 0.2.

What about the “self-splicing fitness (ln)” value (37 °C) of the same sequence?
Its value is -1.04 ± 0.21.

With CGAGAGCAAUAUUACGACCA as the sequence, how does the “self-splicing fitness (ln)” value (30 °C) read?
The value was -2.78 ± 0.37.

For CGAGAGCAAUAUUACGAGAC, which “self-splicing fitness (ln)” value (30 °C) is on record?
The value was -2.64 ± 0.46.

Which results are given for CGAGAGCAAUAUUACGAGCG?
self-splicing fitness (ln) (30 °C): -0.966 ± 0.11; self-splicing fitness (ln) (37 °C): -1.72 ± 0.18

For CGAGAGCAAUAUUACGAGGG, which “self-splicing fitness (ln)” value (30 °C) is on record?
Its value is -4.22 ± 0.31.

And the “self-splicing fitness (ln)” value (37 °C)?
Its value is -3.16 ± 0.27.

What does the source list for CGAGAGCAAUAUUACGAUCC?
self-splicing fitness (ln) (30 °C): -3.95 ± 0.46; self-splicing fitness (ln) (37 °C): -2.36 ± 0.28

For CGAGAGCAAUAUUACGAUGC, which “self-splicing fitness (ln)” value (37 °C) is on record?
Its value is -1.63 ± 0.35.

With CGAGAGCAAUAUUACGCAGG as the sequence, how does the “self-splicing fitness (ln)” value (37 °C) read?
Its value is -1.63 ± 0.17.

For CGAGAGCAAUAUUACGCCUU, which “self-splicing fitness (ln)” value (30 °C) is on record?
The value was -3.73 ± 0.43.

And the “self-splicing fitness (ln)” value (37 °C)?
Its value is -1.07 ± 0.29.

For CGAGAGCAAUAUUACGCGAU, which “self-splicing fitness (ln)” value (30 °C) is on record?
The value was -3.7 ± 0.48.

And the “self-splicing fitness (ln)” value (37 °C)?
The value was -1.04 ± 0.37.

Which results are given for CGAGAGCAAUAUUACGCUGA?
self-splicing fitness (ln) (30 °C): -2.91 ± 0.44; self-splicing fitness (ln) (37 °C): -0.634 ± 0.27

For CGAGAGCAAUAUUACGGAAG, which “self-splicing fitness (ln)” value (30 °C) is on record?
Its value is -3.57 ± 0.28.

What about the “self-splicing fitness (ln)” value (37 °C) of the same sequence?
Its value is -2.54 ± 0.23.

For CGAGAGCAAUAUUACGGGCU, which “self-splicing fitness (ln)” value (30 °C) is on record?
The value was -3.67 ± 0.22.

And the “self-splicing fitness (ln)” value (37 °C)?
The value was -2.18 ± 0.28.

What does the source list for CGAGAGCAAUAUUACGGGGA?
self-splicing fitness (ln) (30 °C): -3.24 ± 0.47; self-splicing fitness (ln) (37 °C): -1.74 ± 0.31

What does the source list for CGAGAGCAAUAUUACGGUAU?
self-splicing fitness (ln) (30 °C): -3.41 ± 0.28; self-splicing fitness (ln) (37 °C): -2.88 ± 0.29

Which “self-splicing fitness (ln)” value (30 °C) does the source give for CGAGAGCAAUAUUACGGUGC here?
Its value is -3.73 ± 0.25.

And the “self-splicing fitness (ln)” value (37 °C)?
Its value is -3.43 ± 0.46.

Which results are given for CGAGAGCAAUAUUACGUCAA?
self-splicing fitness (ln) (30 °C): -3.22 ± 0.21; self-splicing fitness (ln) (37 °C): -2.4 ± 0.27

With CGAGAGCAAUAUUACGUGCC as the sequence, how does the “self-splicing fitness (ln)” value (37 °C) read?
The value was -2.05 ± 0.38.

What does the source list for CGAGAGCAAUAUUACGUGGG?
self-splicing fitness (ln) (30 °C): -2.27 ± 0.35; self-splicing fitness (ln) (37 °C): -1.42 ± 0.28

With CGAGAGCAAUAUUACGUUGU as the sequence, how does the “self-splicing fitness (ln)” value (37 °C) read?
The value was -1.57 ± 0.19.

With CGAGAGCAAUAUUACGUUUA as the sequence, how does the “self-splicing fitness (ln)” value (30 °C) read?
The value was -3.35 ± 0.36.

And the “self-splicing fitness (ln)” value (37 °C)?
Its value is -3.25 ± 0.47.

Which results are given for CGAUAGCAAUAUUACGAUCA?
self-splicing fitness (ln) (30 °C): -0.106 ± 0.06; self-splicing fitness (ln) (37 °C): 0.441 ± 0.087

Which results are given for CGAUAGCAAUAUUACGAUCC?
self-splicing fitness (ln) (30 °C): -0.714 ± 0.13; self-splicing fitness (ln) (37 °C): 0.104 ± 0.19

What does the source list for CGAUAGCAAUAUUACGAUGU?
self-splicing fitness (ln) (30 °C): -0.22 ± 0.14; self-splicing fitness (ln) (37 °C): -0.614 ± 0.16

What does the source list for CGAUAGCAAUAUUACGAUUC?
self-splicing fitness (ln) (30 °C): -3.87 ± 0.39; self-splicing fitness (ln) (37 °C): -0.777 ± 0.17

Which results are given for CGAUAGCAAUAUUACGCGCU?
self-splicing fitness (ln) (30 °C): -0.899 ± 0.12; self-splicing fitness (ln) (37 °C): -1.02 ± 0.12

With CGAUAGCAAUAUUACGGAUC as the sequence, how does the “self-splicing fitness (ln)” value (30 °C) read?
The value was -3.1 ± 0.3.

What about the “self-splicing fitness (ln)” value (37 °C) of the same sequence?
The value was -2.6 ± 0.23.

For CGAUAGCAAUAUUACGGGAA, which “self-splicing fitness (ln)” value (30 °C) is on record?
Its value is -2.74 ± 0.32.

What about the “self-splicing fitness (ln)” value (37 °C) of the same sequence?
Its value is -2.33 ± 0.25.

What does the source list for CGAUAGCAAUAUUACGGGCC?
self-splicing fitness (ln) (30 °C): -1.62 ± 0.49; self-splicing fitness (ln) (37 °C): -1.8 ± 0.4

With CGAUAGCAAUAUUACGUAGC as the sequence, how does the “self-splicing fitness (ln)” value (30 °C) read?
Its value is -3.25 ± 0.19.

And the “self-splicing fitness (ln)” value (37 °C)?
The value was -2.68 ± 0.34.
